Laboratory results taken from US20200024348A1 (Alector, published 2020).

Legend:
[1] = biological target: T1, human Sortilin (SORT1), full-length untagged, expressed on cells (human, UniProt Q99523 78-831); assay: cell-based or functional assay
T1 sequence: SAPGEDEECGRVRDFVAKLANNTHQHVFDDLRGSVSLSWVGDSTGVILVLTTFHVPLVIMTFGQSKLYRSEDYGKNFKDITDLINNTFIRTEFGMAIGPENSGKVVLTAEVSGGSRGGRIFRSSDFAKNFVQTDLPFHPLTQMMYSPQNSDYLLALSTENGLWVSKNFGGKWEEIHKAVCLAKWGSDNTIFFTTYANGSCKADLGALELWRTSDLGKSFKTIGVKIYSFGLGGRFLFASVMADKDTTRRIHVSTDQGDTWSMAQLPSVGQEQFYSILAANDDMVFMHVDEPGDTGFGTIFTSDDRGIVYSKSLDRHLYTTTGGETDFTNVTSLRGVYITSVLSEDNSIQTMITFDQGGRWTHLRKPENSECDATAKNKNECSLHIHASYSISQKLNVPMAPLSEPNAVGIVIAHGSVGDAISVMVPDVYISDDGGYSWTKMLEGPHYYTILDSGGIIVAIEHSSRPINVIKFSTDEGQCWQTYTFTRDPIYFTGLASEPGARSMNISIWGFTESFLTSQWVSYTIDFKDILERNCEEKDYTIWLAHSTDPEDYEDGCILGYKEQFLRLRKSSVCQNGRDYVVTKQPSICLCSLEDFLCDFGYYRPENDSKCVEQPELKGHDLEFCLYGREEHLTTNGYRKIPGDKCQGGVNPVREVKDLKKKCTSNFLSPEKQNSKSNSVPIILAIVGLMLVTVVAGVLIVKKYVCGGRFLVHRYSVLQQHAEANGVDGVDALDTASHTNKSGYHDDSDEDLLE

[2] = biological target: T1, human Sortilin (SORT1), full-length …; assay: FACS on HEK293T cells expressing human SORT1, huIgG1
Procedure: For the binding assay, stable HEK293T cells expressing human SORT1 were harvested by trypsinization, washed in PBS, counted and plated on 96-well u-bottom plates at 1×10⁵ cells/well. The plates were spun at 1,400 rpm for 3 minutes and primary anti-SORT1 or control antibodies were added in FACS buffer (PBS+2 FBS) and incubated on ice for one hour. Cells were subsequently centrifuged as before and washed thrice with FACS buffer. Cells were then incubated with anti-human APC conjugated secondary antibody (BD Biosciences) in FACS buffer for 30 minutes on ice. Cells were again washed three times with FACS buffer and analyzed on a BD FACS Canto or an Intellicyt Flow Cytometer. Binding was measured as median fluorescent intensity (MFI) in the […] channel of the GFP positive cell population.
All antibodies were tested on the huIgG1 backbone.

[3] = biological target: T2, histidine-tagged human SORT1 (R&D Systems) (human, UniProt Q99523 78-755); assay: BLI (Octet RED96), antibody captured on anti-human IgG Fc sensor, 20 nM His-tagged human SORT1, 1:1 fit
T2 construct: Bought recombinant protein; also called His-tagged human SORT1; not shown: histidine tag
T2 sequence: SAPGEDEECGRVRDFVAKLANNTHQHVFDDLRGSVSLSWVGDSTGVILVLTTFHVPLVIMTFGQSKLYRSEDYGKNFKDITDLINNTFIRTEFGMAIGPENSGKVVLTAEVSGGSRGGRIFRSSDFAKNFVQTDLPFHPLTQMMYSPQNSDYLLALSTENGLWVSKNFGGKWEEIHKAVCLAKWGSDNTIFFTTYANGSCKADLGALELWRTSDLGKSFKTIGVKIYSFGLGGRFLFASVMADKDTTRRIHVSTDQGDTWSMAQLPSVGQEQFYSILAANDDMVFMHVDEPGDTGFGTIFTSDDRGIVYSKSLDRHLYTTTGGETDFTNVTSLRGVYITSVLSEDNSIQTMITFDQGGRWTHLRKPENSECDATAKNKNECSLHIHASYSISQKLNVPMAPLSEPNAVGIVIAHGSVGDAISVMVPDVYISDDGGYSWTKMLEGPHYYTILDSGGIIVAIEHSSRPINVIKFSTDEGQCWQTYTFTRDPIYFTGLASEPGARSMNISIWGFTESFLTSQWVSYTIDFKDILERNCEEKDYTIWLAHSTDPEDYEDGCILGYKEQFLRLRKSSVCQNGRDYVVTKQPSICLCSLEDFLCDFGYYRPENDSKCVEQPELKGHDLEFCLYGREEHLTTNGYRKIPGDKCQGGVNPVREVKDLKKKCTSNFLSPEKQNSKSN
Procedure: The G1m3 or G1m(f) allotype with L234A/L235A/P331S (“LALAPS” motif) mutations was used as a background (Jefferis R and Lefranc M-P, Mabs, 2009 July-August; 1(4): 332-338). […] Bio-layer interferometry (BLI) data was collected at a rate of 5 Hz at 25° C. on a Pall ForteBio Octet RED96 instrument. Data analysis was performed using ForteBio Data Analysis Software, version 9.0. Standard kinetic buffer (PBS, 0.1 BSA, 0.02 Tween-20, pH 7.2) was used for the assay and for preparing reagents. For all assays, sensor tips were equilibrated in buffer prior to analysis.
Twenty nM histidine-tagged human SORT1 (R&D Systems, Minneapolis, Minn.) was then bound to the captured anti-SORT1 surface (200 s association time, 1200 s dissociation time). […] Full, local fitting using a 1:1 interaction model was applied to extract association and dissociation rate constants (kₐ and kd, respectively) for each N33 mutant. Affinity constants (KD) were calculated from the ratio […]. Different amino acid substitutions were made at N33 and tested for binding to SORT1 in an off-rate screen (under non-stress conditions) as shown in Table 9.

[4] = biological target: T1, human Sortilin (SORT1), full-length …; assay: cell-based or functional assay; remark: listed apart in the source
[5] = biological target: T1, human Sortilin (SORT1), full-length …; assay: cell-based or functional assay; remark: listed apart in the source

B1: S-60-1 (antibody, IgG1, V domains shown)
VH: QVQLQESGPGLVKPSETLSLTCAVSGYSISSVRYWGWIRQPPGKGLEWIGSIYHSGSTYYNPSLKSRVTISVDTSKNQFSLKLSSVTAADTAVYYCARQGSIKQGYYGMDVWGQGTTVTVSS
VL: not shown
notes: Tested on the huIgG1 (WT) backbone
DR EC50 (M): down-regulation of cell surface SORT1, U251 cells, FACS [1]: 2.73e-10 M | DR at 0.6 nM antibody (IgG): percent SORT1 downregulation, U251 cells [1]: 50.4% | Kd [2]: 7220 pM

B2: S-60-15.17 [N33L] (antibody, human IgG1, kappa, L234A L235A, V domains shown)
VH: QVQLQESGPGLVKPSETLSLTCAVSGYSISSGYYWGWIRQPPGKGLEWIGTIYHSGSTYYNPSLKSRVTISVDTSKNQFSLKLSSVTAADTAVYYCARQGSIKQGYYGMDVWGQGTTVTVSS
VL: DIVMTQSPLSLPVTPGEPASISCRSSQSLLRSLGYNYLDWYLQKPGQSPQLLIYLGSNRASGVPDRFSGSGSGTDFTLKISRAEAEDVGVYYCMQQQEAPLTFGGGTKVEIKR
notes: huIgG1 LALAPS
Kd [3]: 1030 pM | koff [3]: 0.000425 s⁻¹ | kon [3]: 412000 M⁻¹ s⁻¹

B3: S-60-15 (antibody, IgG1, V domains shown)
VH: QVQLQESGPGLVKPSETLSLTCAVSGYSISSGYYWGWIRQPPGKGLEWIGTIYHSGSTYYNPSLKSRVTISVDTSKNQFSLKLSSVTAADTAVYYCARQGSIKQGYYGMDVWGQGTTVTVSS
VL: not shown
DR at 1.25 nM antibody (IgG): percent SORT1 downregulation, U251 cells [4]: 60.9% | Kd [2]: 560 pM

B4: S-60-10 (antibody, IgG1, V domains shown)
VH: QVQLQESGPGLVKPSETLSLTCAVSGYSISSGYYWGWIRQPPGKGLEWIGTIYHSGSTYYNPSLKSQVTISVDTSKNQFSLELSSVTAADTAVYYCARQGSIQQGYYGMDVWGQGTTVTVSS
VL: not shown
notes: as for B1
DR at 0.63 nM antibody (IgG): percent SORT1 downregulation, U251 cells [5]: 85.4% | Kd [2]: 650 pM

B5: S-60-12 (antibody, IgG1, V domains shown)
VH: QVQLQESGPGLVKPSETLSLTCAVSGYSISSGYYWGWIRQPPGKGLEWIGTIYHSGSTYYNPSLKSQVTISVDTSKNQFSLELSSVTAADTAVYYCARQGSIQQGYYGMDVWGQGTTVTVSS
VL: DIVMTQSPLSLPVTPGEPASISCRSSQSLLRSNGYNYLDWYLQKPGQPPQLLIYLGSNRVSGVPDRFSGSGSGTDFTLKISRVEAEDVGVYYCMQQQETPLTFGGGTKVEIK
notes: as for B1
DR at 0.63 nM antibody (IgG): percent SORT1 downregulation, U251 cells [5]: 87.4% | Kd [2]: 890 pM

B6: S-60-18 (antibody, IgG1, V domains shown)
VH: QVQLQESGPGLVKPSETLSLTCAVSGYSISSGYYWGWIRQPPGKGLEWIGTIYHSGSTYYNPSLKSRVTISVDTSKNQFSLKLSSVTAADTAVYYCARQGSIKQGYYGMDVWGQGTTVTVSS
VL: DIVMTQSPLSLPVTPGGPASISCRSSQSLLRSNGYNYLDWYLQKPGQSPQLLIYLGSNRASGVPDRLSGSGSGTDFTLKISRVEAEDVGVYYCMQQQETPLTFGGGTKVEIK
notes: as for B1
DR at 1.25 nM antibody (IgG): percent SORT1 downregulation, U251 cells [4]: 51.3% | Kd [2]: 1630 pM

B7: S-60-16 (antibody, IgG1, V domains shown)
VH: QVQLQESGPGLVKPSETLSLTCAVSGYSISSGYYWGWIRQPPGKGLEWIGTIYHSGSTYYNPSLKSRVTISVDTSKNQFSLKLSSVTAADTAVYYCARQGSIKQGYYGMDVWGQGTTVTVSS
VL: not shown
notes: as for B1
DR at 1.25 nM antibody (IgG): percent SORT1 downregulation, U251 cells [4]: 70.1% | Kd [2]: 780 pM

B8: S-60-11 (antibody, IgG1, V domains shown)
VH: QVQLQESGPGLVKPSETLSLTCAVSGYSISSGYYWGWIRQPPGKGLEWIGTIYHSGSTYYNPSLKSQVTISVDTSKNQFSLELSSVTAADTAVYYCARQGSIQQGYYGMDVWGQGTTVTVSS
VL: not shown
notes: as for B1
DR at 0.63 nM antibody (IgG): percent SORT1 downregulation, U251 cells [5]: 88.8% | Kd [2]: 650 pM

B9: S-60-2 (antibody, IgG1, V domains shown)
VH: QVQLQESGPGLVKPSETLSLTCAVSGYSISSVRYWGWIRQPPGKGLEWIGAIYPSGSTYYNPSLKSRVTISVDTSKNQFSLKLSSVTAADTAVYYCARQGSIKQGYYGMDVWGQGTTVTVSS
VL: not shown
notes: as for B1
DR EC50 (M): down-regulation of cell surface SORT1, U251 cells, FACS [1]: 4.2e-10 M | DR at 0.6 nM antibody (IgG): percent SORT1 downregulation, U251 cells [1]: 40.3% | Kd [2]: 11000 pM

B10: S-60-4 (antibody, IgG1, V domains shown)
VH: QVQLQESGPGLVKPSETLSLTCAVSGYSISSGYYWGWIRQPPGKGLEWIGTIYHSGSTYYNPSLKSRVTISVDTSKNQFSLKLSSVTAADTAVYYCARQGSIKQGYYGMDVWGQGTTVTVSS
VL: DIVMTQSPLSLPVTPGESASISCRSSQGLLRSNGYNYLDWYLQKPGQSPQLLIYLGSNRASGVPDRFSGSGSGTDFTLKISRVEAEDVGVYYCMQQQETPLTFGGGTKVEIK
notes: as for B1
DR EC50 (M): down-regulation of cell surface SORT1, U251 cells, FACS [1]: 4.18e-10 M | DR at 0.6 nM antibody (IgG): percent SORT1 downregulation, U251 cells [1]: 39.6% | Kd [2]: 634 pM

B11: S-60-8 (antibody, IgG1, V domains shown)
VH: QVQLQESGPGLVKPSETLSLTCAVSGYSISSGYYWGWIRQPPGKGLEWIGTIYHSGSTYYNPSLKSRVTISVDTSKNQFSLKLSSVTAADTAVYYCARQGSIKQGYYGMDVWGQGTTVTVSS
VL: not shown
notes: as for B1
DR EC50 (M): down-regulation of cell surface SORT1, U251 cells, FACS [1]: 5.76e-10 M | DR at 0.6 nM antibody (IgG): percent SORT1 downregulation, U251 cells [1]: 32% | Kd [2]: 468 pM

B12: S-60-19 (antibody, IgG1, V domains shown)
VH: QVQLQESGPGLVKPSETLSLTCAVSGYSISSGYYWGWIRQPPGKGLEWIGTIYHSGSTYYNPSLKSQVTISVDTSKNQFSLELSSVTAADTAVYYCARQGSIQQGYYGMDVWGQGTTVTVSS
VL: not shown
notes: as for B1
DR at 1.25 nM antibody (IgG): percent SORT1 downregulation, U251 cells [4]: 55.5% | Kd [2]: 800 pM

B13: S-60-7 (antibody, IgG1, V domains shown)
VH: QVQLQESGPGLVKPSETLSLTCAVSGYSISSGYYWGWIRQPPGKGLEWIGTIYHSGSTYYNPSLKSRVTISVDTSKNQFSLKLSSVTAADTAVYYCARQGSIKQGYYGMDVWGQGTTVTVSS
VL: not shown
notes: Tested on the huIgG1 (WT) backbone; also called S-60-5; S-60-6
DR EC50 (M): down-regulation of cell surface SORT1, U251 cells, FACS [1]: 4.47e-10 M | DR at 0.6 nM antibody (IgG): percent SORT1 downregulation, U251 cells [1]: 32.6% | Kd [2]: 787 pM
